Experimental data from paper PMC2191588.

Molecular target: TCR beta proteins on normal splenic CD4+ T cells (mouse (endogenous in splenic CD4+ T cells))
Assay: flow cytometry on cells

CD3 epsilon (from UniProt P22646 22-189) (natural protein)
stoichiometry N (CD3e per TCR beta): 2
